{
  "source": "patent US6025146A",
  "about": "“Identification of M-CSF agonists and antagonists” (Chiron Corporation, priority 1995, dated 2000)",
  "key": {"NFS-60 cells [1]": {"test_system": "NFS-60 cells", "assay": "Antibody neutralization of M-CSF dimers by 5H410 Mab in the NFS-60 bioassay", "type": "cell-based", "conditions": "serial dilution neutralization experiments", "protocol": "Fractionated products were analyzed on reducing SDS-PAGE and stained with Coomassie, according to the method of Laemmli, Nature […] 227:680-685 (1970). Biological activity was determined using the M-CSF dependent NFS-60 bioassay (See Example 10 below). Antibody neutralization experiments were carried out by pre-incubating approximately 5,000 units of M-CSF dimer with varying dilutions of the neutralizing M-CSF 5H410 Mab (made to refolded E. coli CΔ 150 M-CSFα dimer) prior to bioassay. (Halenbeck et al, Bio/Technology 7:710 (1989)\nThe biological activity of all three dimer species was neutralized to the same extent in serial dilution neutralization experiments using the 5H410 M-CSF Mab in the NFS-60 bioassay."}, "[2]": {"test_system": "cell surface M-CSF receptor (NFS60 cell M-CSF receptors)", "assay": "NFS-60 receptor competition assay: displacement of 125I-M-CSF by radioligand displacement", "type": "binding", "protocol": "FIG. 7 illustrates the competitive binding of M-CSF and M-CSF muteins to NFS60 cell M-CSF receptors.\nThe plates were incubated at 4° C. for 20 hours and the cells were collected on glass-fiber filters. Maximum binding was measured in the absence of unlabeled M-CSF and non-specific binding was measured in the presence of 1000-fold greater concentration of unlabeled M-CSF (compared to labeled M-CSF). […] Results are expressed as percent displacement of radioactive M-CSF versus mutein concentration (FIG. 7)."}, "NFS-60 cells [3]": {"test_system": "NFS-60 cells", "assay": "M-CSF dependent NFS-60 bioassay (MTT read-out)", "type": "cell-based", "protocol": "Fractionated products were analyzed on reducing SDS-PAGE and stained with Coomassie, according to the method of Laemmli, Nature […] 227:680-685 (1970). Biological activity was determined using the M-CSF dependent NFS-60 bioassay (See Example 10 below). […] (Halenbeck et al, Bio/Technology 7:710 (1989)\nThe purified mutein dimers were subjected to bioassay using NFS-60 cells which is an M-CSF dependent cell line which forms colonies in the presence of active M-CSF. Standards and purified mutein samples were serially diluted 1:2 in RPMI media (10% fetal bovine serum) in a 50 microliter volume in 96-well microtiter plates. […] Plates were incubated at 37° C., 5% CO2 for 44 h. 5 mg/ml MTT dye was added to each sample and incubation continued for 4 h. 20% SDS was added to each sample. The plates were wrapped in foil and left overnight. The absorbance of each sample was read at 570 nm and compared to a standard of known M-CSF concentration."}},
  "data": [
    {"molecule": "Chinese hamster ovary cell (CHO)-expressed M-CSF: \"naturally refolded\" M-CSF expressed in Chinese hamster ovary cells (protein, UniProt P09603 33-554, looked up) Macrophage colony-stimulating …: EEVSEYCSHMIGSGHLQSLQRLIDSQMETSCQITFEFVDQEQLKDPVCYLKKAFLLVQDIMEDTMRFRDNTPNAIAIVQLQELSLRLKSCFTKDYEEHDKACVRTFYETPLQLLEKVKNVFNETKNLLDKDWNIFSKNCNNSFAECSSQDVVTKPDCNCLYPKAIPSSDPASVSPHQPLAPSMAPVAGLTWEDSEGTEGSSLLPGEQPLHTVDPGSAKQRPPRSTCQSFEPPETPVVKDSTIGGSPQPRPSVGAFNPGMEDILDSAMGTNWVPEEASGEASEIPVPQGTELSPSRPGGGSMQTEPARPSNFLSASSPLPASAKGQQPADVTGTALPRVGPVRPTGQDWNHTPQKTDHPSALLRDPPEPGSPRISSLRPQGLSNPSTLSAQPQLSRSHSSGSVLPLGELEGRRSTRDRRSPAEPEGGPASEGAARPLPRFNSVPLTDTGHERQSEGSFSPQLQESVFHLLVPSVILVLLAVGGLLFYRWRRRSHQEPQRADSPLEQPEGSPLTQDDRQVELPV", "values": [
      {"measurement": "neutralization of biological activity by 5H410 M-CSF Mab", "setting": "NFS-60 cells [1]", "value": "neutralizes"}
    ]},
    {"molecule": "Q20A, V78K: double mutant of M-CSF altering solvent accessible residues in the central portion of helices A and C (protein, UniProt P09603 33-554, looked up, variant Q20A V78K) Macrophage colony-stimulating …: EEVSEYCSHMIGSGHLQSLARLIDSQMETSCQITFEFVDQEQLKDPVCYLKKAFLLVQDIMEDTMRFRDNTPNAIAIKQLQELSLRLKSCFTKDYEEHDKACVRTFYETPLQLLEKVKNVFNETKNLLDKDWNIFSKNCNNSFAECSSQDVVTKPDCNCLYPKAIPSSDPASVSPHQPLAPSMAPVAGLTWEDSEGTEGSSLLPGEQPLHTVDPGSAKQRPPRSTCQSFEPPETPVVKDSTIGGSPQPRPSVGAFNPGMEDILDSAMGTNWVPEEASGEASEIPVPQGTELSPSRPGGGSMQTEPARPSNFLSASSPLPASAKGQQPADVTGTALPRVGPVRPTGQDWNHTPQKTDHPSALLRDPPEPGSPRISSLRPQGLSNPSTLSAQPQLSRSHSSGSVLPLGELEGRRSTRDRRSPAEPEGGPASEGAARPLPRFNSVPLTDTGHERQSEGSFSPQLQESVFHLLVPSVILVLLAVGGLLFYRWRRRSHQEPQRADSPLEQPEGSPLTQDDRQVELPV", "values": [
      {"measurement": "M-CSF receptor-binding ability (in words)", "setting": "[2]", "value": "decreased"},
      {"measurement": "fold increase in IC50 / decrease in binding affinity compared to M-CSFα NΔ3CΔ158", "setting": "[2]; relative to IC50 of about 17 pM for 158", "value": 5, "unit": "fold"},
      {"measurement": "specific activity", "setting": "NFS-60 cells [3]; purified refolded dimers, compared to a standard of known M-CSF concentration", "value": "1.4×10^7 U/mg"},
      {"measurement": "fold reduction in biological (specific) activity compared to parental M-CSF", "setting": "NFS-60 cells [3]; relative to parental reference (homodimer or heterodimer)", "value": "8-10 fold"}
    ]}
  ]
}
